{Biotin} = biotin (Bio) of the a-strand; {Bio} = biotin of the strand
How the values were obtained:
[1] = Electric potential (zeta potential) measurement of self-assembly products; assay type: physicochemical; conditions: result over 3 detections, at 25 DEG C.
Experimental: Measurement method: preparing a potential sample (the self-assembly product is dissolved in ultrapure water) and putting into a sample pool, opening a sample pool cover of an instrument, and placing the instrument;
opening software, clicking a menu MeasUre€ManUal, so a manual measurement parameter setting dialog box appears;
setting a software detection parameter;
and then clicking Ok to complete the settings, after a measurement dialog box appears, clicking start to start.
and then clicking Ok to complete the settings, after a measurement dialog box appears, clicking Start to start.
Measurement method: preparing a potential sample (the self-assembly product is dissolved in ultrapure water) and putting into a sample pool, opening a sample pool cover of an instrument, and placing the instrument:
Measurement result potential detection results of the 7 groups of the extension fragment deformation+core short-sequence RNA nanoparticles at 25 DEG C. are as follows:
setting a software detection parameter; and then
clicking Ok to complete the settings, after a measurement dialog box appears, clicking Start to start.
Measurement result potential detection results of the 7 groups of the extension fragment deformation+core short-sequence DNA nanoparticles at 25 DEG C. are as follows: […]

[2] = Particle size measurement (DLS hydrodynamic size); assay type: physicochemical; conditions: DLS hydrodynamic size
From the text: 1. Preparing a potential sample (conventional-sequence DNA self-assembly product D-7) and putting into a sample pool, opening a sample pool cover of an instrument, and placing the instrument;
2. opening software, and clicking a menu, so a manual measurement parameter setting dialog box appears;
3. setting a software detection parameter; and then
4. clicking Ok to complete the settings, when a measurement dialog box appears, clicking Start to start, a DLS measurement value result of a hydrodynamic size of the self-assembly product D-7 is shown below in Table 40: […]

[3] = TM value detection by solubility curve method (SYBR Green I); assay type: physicochemical; conditions: DNA nanoparticles
Experimental: A solubility curve method is used to detect TM values of the 7 groups of the extension fragment deformation+core short-sequence RNA nanoparticles, and the samples are consistent with the potential samples.
(1) After the sample is diluted with ultrapure water, 5 μg of the diluted sample is mixed with 2 μL of SYBR Green I dye (diluted by 1:200), a final volume is 20 μL, and the dilution concentration is as follows:
(2) It is incubated for 30 min in the dark at a room temperature; and
(3) On-machine detection is performed, a program is set to start at 20 DEG C., the temperature rises per second from 0.1 DEG C. to 95 DEG C., and reading is performed every 5 s.
Due to the particularity of the RNA samples, a temperature corresponding to ½ RFUmax in a range of 20 to 90 DEG C. is used as a sample Tm value in this test.
A solubility curve method is used to detect TM values of the 7 groups of the extension fragment deformation+core short-sequence DNA nanoparticles, and the samples are consistent with the potential samples.
(1) After the sample is diluted with ultrapure water, 5 μg of the diluted sample is mixed with 2 μL of SYBR Green I dye (diluted by 1:200). a final volume is 20 μL, and the dilution concentration is as follows: […]

[4] = Drug loading rate of nucleic acid nanoparticles (chemical loading, absorbance standard curve); assay type: physicochemical; set-up: unit not given here; conditions: for doxorubicin loading rate: chemical loading method of Embodiment 5
From the text: According to the chemical loading method (unless otherwise specified, the method is the same as that of Embodiment 5) of Embodiment 5, the RNA nanoparticles formed by the self-assembly of the previous R-15, R-16, R-17, R-18, R-19, R-20 and R-21 in Embodiment 9, and the DNA nanoparticles formed by the self-assembly of the D-8, D-9, D-10, D-11, D-12, D-13 and D-14 in Embodiment 10 are respectively used as doxorubicin loading carriers, doxorubicin loading rates measured are respectively as follows:
According to the chemical loading method (unless otherwise specified, the method is the same as that of Embodiment 5) of Embodiment 5, the DNA nanoparticles formed by the self-assembly of the previous D-10 and D-14 in Embodiment 10 are used as a daunorubicin loading carrier.
According to a chemical loading method of Embodiment 5 (unless otherwise specified, the method is the same as that of Embodiment 5, the same molar number of the epirubicin is used as a loading amount), nucleic acid nanoparticles (a molecular weight is 29550, it is similar to the RNA nanoparticles in Embodiment 1, and a difference is that a fluorescent label on a c-strand is Cy5) are used as a carrier, and respectively loaded with: epirubicin, methotrexate, pirarubicin, daunorubicin, […], 10-hydroxycamptothecin, aspirin and gemcitabine.
Herein, when a standard curve is drawn, the absorbance of the above drugs on the microplate reader is measured respectively. The absorbance of the epirubicin, methotrexate, pirarubicin, daunorubicin, […], 10-hydroxycamptothecin, aspirin and gemcitabine is respectively detected at the following wavelengths: 492 nm, 303 nm, 492 nm, 492 nm, 265 nm, 384 nm, 225 nm and 268 nm. The standard curves obtained correspondingly are respectively shown in FIG. 48a, FIG. 49, FIG. 50sa, FIG. 51, FIG. 52, FIG. 53, FIG. 54a and FIG. 55. […]

[5] = system: HepG2 cells; assay: Cell binding of DNA nanoparticles and carrier drugs by FACS; assay type: cell-based; conditions: incubated at 37 DEG C. for 2 h, flow cytometry
Experimental: 1. A cell state is adjusted to a logarithmic growth phase, the medium is changed into a medium without biotin and folic acid, and it is incubated overnight in an incubator at 37 DEG C.
2. After incubation, cell suspension is trypsinized and collected, and centrifuged at 1000 rpm for 5 min, after the concentration is adjusted, a 2×10^6-5×10^6 cell/EP tube is taken and washed twice with 1 mL/tube of 1% BSA-PBS, and cells at the bottom of the tube is observed to prevent them from being absorbed.
3. A substance to be tested is dissolved, and the substance to be tested is diluted to a use concentration.
4. Cell supernatant is absorbed, 100 μL of a corresponding sample is added to each tube in order, light is avoided, and it is incubated at 37 DEG C. for 2 h.
5. It is washed twice with 1% BSA-PBS; and centrifuged at 1000 rpm for 5 min.
6. Finally, it is precipitated with 300 μL of PBS cell resuspension, and flow Cytometric on-machine detection (the blank carrier used in the present embodiment is labeled by Quasar670, and the doxorubicin in the carrier drug has its own fluorescence, so the detection may be performed through FL4-APC and FL2-PE respectively) is performed.

[6] = system: HepG2 cells; assay: CCK8 toxicity of DNA nanoparticles and carrier drugs; assay type: cell-based; conditions: HepG2, CCK8, 72 hours
Experimental: A CCK8 method is used to detect the toxicity of DNA nanoparticles and carrier drugs to HepG2.
2. A sample to be tested is diluted according to the following table and added: the original culture medium is removed and 100 μL of a culture medium of the sample to be tested with the different concentration is added, and there are 3 replicate wells in each group.
In the present embodiment, the loaded drug and the blank carrier are firstly prepared into 100 μM of stock solution using the PBS, and then diluted with the complete culture medium (biotin-free DMEM). The original drug doxorubicin is firstly prepared into 100 NM of stock solution by using the DMSO, and then diluted with the complete culture medium (biotin-free DMEM). The DMSO is directly diluted with the complete medium (biotin-free DMEM).
3. After the sample to be tested is added, the 96-well plate is placed in an incubator under 37 DEG C. and 5% CO2 and incubated for 72 hours.
4. A kit is taken out and melted at a room temperature, 10 μL of CCK-8 solution is added to each wall, or the CCK8 solution is nixed with the culture medium at a ratio of 1:9, and then added to the well in an amount of 100 μL/well.
5. It is continuously incubated in the cell incubator for 4 hours, and a length of time depends on experimental conditions such as a cell type and a el density.
6. A microplate reader is used to measure an absorbance at 450 nm.
7. Calculation: cell viability (%)=(OD experimental group−OD blank group)[…]/(OD control group−OD blank group), IC50 is calculated by GraphPad Prism 5.0.

| Molecule | Potential ZP, Experiment result [1] | Mean particle size (nm) [2] | TM value (° C.) [3] | doxorubicin loading rate [4] | Positive rate ([5]; HepG2, 1 μM) | Positive rate ([5]; HepG2, 2 μM) | IC50 [6] | daunorubicin loading rate ([4]; absorbance at 492 nm) |
| --- | --- | --- | --- | --- | --- | --- | --- | --- |
| D-8: extension fragment deformation+core short-sequence DNA nanoparticle, SEQ ID NO: 141-143, a-strand 3′ biotin (nucleic acid, chain 1: DNA, 3' {Biotin}, backbone and methylation of C not given here; chain 2: DNA, backbone and methylation of C not given here; chain 3: DNA, backbone and methylation of C not given here; three-strand DNA nanoparticle carrier) chain 1: GCGGCGAGCGGCGAGGAGCGTTGGGGCCGGAGGCCGG chain 2: CCGGCCTCCGGCCCCTTCGGGGCCAGCCGCC chain 3: GGCGGCAGGCCCCCATAGCCCTCGCCGCTCGCCGC | −30.23 mV | 7.460 nm | 48.5 °C | 28.0 | 96.9% | 98.4% | > 1000 nM |  |
| D-9: extension fragment deformation+core short-sequence DNA nanoparticle, SEQ ID NO: 144-146, 3′ biotin (nucleic acid, chain 1: DNA, 3' {Bio}, backbone and methylation of C not given here; chain 2: DNA, backbone and methylation of C not given here; chain 3: DNA, backbone and methylation of C not given here; three-strand DNA nanoparticle carrier) chain 1: GCGGCGAGCGGCGAGCAGCGTTCGGGCCGGAGGCCGG chain 2: CCGGCCTCCGGCCCGTTCGCCGCCAGCCGCC chain 3: GGCGGCAGGCGGCCATAGCGCTCGCCGCTCGCCGC | −35.07 mV | 7.920 nm | 52.5 °C | 27.9 | 96.7% | 98.1% | > 1000 nM |  |
| D-10: extension fragment deformation+core short-sequence DNA nanoparticle, SEQ ID NO: 147-149, 3′ biotin (nucleic acid, chain 1: DNA, 3' {Bio}, backbone not given here; chain 2: DNA, backbone not given here; chain 3: DNA, backbone not given here; three-strand DNA nanoparticle carrier) chain 1: GCGGCGAGCGGCGAGGAGCGTTGGGGCCGGAGGCCGG chain 2: CCGGCCTCCGGCCCCTTCGCCGCCAGCCGCC chain 3: GGCGGCAGGCGGCCATAGCCCTCGCCGCTCGCCGC | −25.77 mV | 7.220 nm | 54.5~55.0 °C | 18.9 | 97.9% | 98.3% | > 1000 nM | 24.0 |
| D-11: extension fragment deformation+core short-sequence DNA nanoparticle, SEQ ID NO: 150-152, 3′ biotin (nucleic acid, chain 1: DNA, 3' {Bio}, backbone not given here; chain 2: DNA, backbone not given here; chain 3: DNA, backbone not given here; three-strand DNA nanoparticle carrier) chain 1: GCGGCGAGCGGCGAGCAGCGTTCGGGCCGGAGGCCGG chain 2: CCGGCCTCCGGCCCGTTCGGCGCCAGCCGCC chain 3: GGCGGCAGGCGCCCATAGCGCTCGCCGCTCGCCGC | −27.43 mV | 7.472 nm | 48.7 °C | 26.8 | 97.7% | 97.8% | > 1000 nM |  |
| D-12: extension fragment deformation+core short-sequence DNA nanoparticle, SEQ ID NO: 153-155, 3′ biotin (nucleic acid, chain 1: DNA, 3' {Biotin}, backbone not given here; chain 2: DNA, backbone not given here; chain 3: DNA, backbone not given here; three-strand DNA nanoparticle carrier) chain 1: GCGGCGAGCGGCGAGCAGCGTTCGGGCCGGAGGCCGG chain 2: CCGGCCTCCGGCCCGTTCGGCCCCAGCCGCC chain 3: GGCGGCAGGGGCCCATAGCGCTCGCCGCTCGCCGC | −32.50 mV | 6.968 nm | 51.5 °C | 27.6 | 96.9% | 97.1% | > 1000 nM |  |
| D-13: extension fragment deformation+core short-sequence DNA nanoparticle, SEQ ID NO: 156-158, 3′ biotin (nucleic acid, chain 1: DNA, 3' {Bio}, backbone not given here; chain 2: DNA, backbone not given here; chain 3: DNA, backbone not given here; three-strand DNA nanoparticle carrier) chain 1: GCGGCGAGCGGCGACGAGCGTTGCGGCCGGAGGCCGG chain 2: CCGGCCTCCGGCCGCTTCGCCGCCAGCCGCC chain 3: GGCGGCAGGCGGCCATAGCCGTCGCCGCTCGCCGC | −27.00 mV | 7.012 nm | 51.0 °C | 31.8 | 97.6% | 98.2% | > 1000 nM |  |
